Measured values taken from patent publication US20160143985.

Assays:
[1] = target: T1, Ac-YVAD-AMC (model substrate, from Enzo, Inc.)
T1 chain: YVAD

[2] = target: alpha-synuclein, wild-type full-length human (140 amino acids)

B1: caspase-1 (ICE; interleukin-1-beta converting enzyme), purified, activated (protein)
chain: NPAMPTSSGSEGNVKLCSLEEAQRIWKQKSAEIYPIMDKSSRTRLALIICNEEFDSIPRRTGAEVDITGMTMLLQNLGYSVDVKKNLTASDMTTELEAFAHRPEHKTSDSTFLVFMSHGIREGICGKKHSEQVPDILQLNAIFNMLNTKNCPSLKDKPKVIIIQACRGDSPGVVWFKDSVGVSGNLSLPTTEEFEDDAIKKAHIEKDFIAFCSSTPDNVSWRHPTMGSVFIGRLIEHMQEYACSCDVEEIFRKVRFSFEQPDGRAQMPTTERVTLTRCFYLFPGH
[1]
  activity against a model substrate: 110 µM/min/mg
[2]
  Western blot of ICE digested alpha-synuclein with increasing amounts of ICE (2 to 12 µg): Appearance of a smaller fragment of synuclein below 17 kD with intensity increasing with amount of ICE
  cleavage of alpha-synuclein in vitro (SDS-PAGE and western blot with anti-synuclein antibody): Purified, activated caspase-1 does indeed cleave alpha-synuclein
